Test results published in the supplement of paper PMC5998384.

Legend:
HeLa Kyoto [1] = assay: solubility in G1/S (NP-40 vs SDS abundance) (log2 ratio); higher = more soluble; conditions: cell cycle stage: G1/S
HeLa Kyoto [2] = assay: melting temperature (median over replicates), in situ; higher = more thermally stable
HeLa Kyoto [3] = assay: solubility change mitosis vs G1/S (difference of NP-40 vs SDS log2 ratios) (log2 ratio difference); higher = more soluble in mitosis
HeLa Kyoto [4] = assay: thermal stability score vs G1/S (z-score of summed log2 fold changes over temperatures); higher = more thermally stable than in G1/S
[5] = cell cycle stage: early G1 (4.5 h after nocodazole release)
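Wherever melting temperature (median over replicates), in situ is given: HeLa Kyoto cells synchronized by double thymidine or nocodazole block, proteins quantified by TMT10plex mass spectrometry, three independent biological replicates.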
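Wherever solubility change mitosis vs G1/S (difference of NP-40 vs SDS log2 ratios) is given: synchronized HeLa Kyoto cells (double thymidine block for G1/S, nocodazole release for mitosis), protein amounts in NP-40 versus SDS lysates quantified by mass spectrometry, three biological replicates.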
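Wherever solubility in G1/S (NP-40 vs SDS abundance) is given: HeLa Kyoto cells arrested at G1/S by double thymidine block, proteins quantified by TMT10plex mass spectrometry in mild NP-40 versus SDS extracts, three biological replicates.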
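Wherever thermal stability score vs G1/S (z-score of summed log2 fold changes over temperatures) is given: synchronized HeLa Kyoto cells, proteins quantified by TMT10plex mass spectrometry, three biological replicates, mitosis taken 0.5 h after nocodazole release, G1/S directly after double thymidine block.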

Row | Substance | solubility in G1/S (log2) (HeLa Kyoto [1]) | melting temperature (HeLa Kyoto [2]; cell cycle stage: G1/S) | melting temperature (HeLa Kyoto [2]; cell cycle stage: mitosis) | solubility change mitosis (log2) (HeLa Kyoto [3]) | thermal stability score (HeLa Kyoto [4]; [5]) | thermal stability score (HeLa Kyoto [4]; cell cycle stage: mitosis)
1 | MERAVPLAVPLGQTEVFQALQRLHMTIFSQSVSPCGKFLAAGNNYGQIAIFSLSSALSSEAKEESKKPVVTFQAHDGPVYSMVSTDRHLLSAGDGEVKAWLWAEMLKKGCKELWRRQPPYRTSLEVPEINALLLVPKENSLILAGGDCQLHTMDLETGTFTRVLRGHTDYIHCLALRERSPEVLSGGEDGAVRLWDLRTAKEVQTIEVYKHEECSRPHNGRWIGCLATDSDWMVCGGGPALTLWHLRSSTPTTIFPIRAPQKHVTFYQDLILSAGQGRCVNQWQLSGELKAQVPGSSPGLLSLSLNQQPAAPECKVLTAAGNSCRVDVFTNLGYRAFSLSF [THOC6] | -0.108 | 51.8 °C | 51.2 °C | 0.108 | -0.465 | -0.675
2 | MDSRLQEIRERQKLRRQLLAQQLGAESADSIGAVLNSKDEQREIAETRETCRASYDTSAPNAKRKYLDEGETDEDKMEEYKDELEMQQDEENLPYEEEIYKDSSTFLKGTQSLNPHNDYCQHFVDTGHRPQNFIRDVGLADRFEEYPKLRELIRLKDELIAKSNTPPMYLQADIEAFDIRELTPKFDVILLEPPLEEYYRETGITANEKCWTWDDIMKLEIDEIAAPRSFIFLWCGSGEGLDLGRVCLRKWGYRRCEDICWIKTNKNNPGKTKTLDPKAVFQRTKEHCLMGIKGTVKRSTDGDFIHANVDIDLIITEEPEIGNIEKPVEIFHIIEHFCLGRRRLHLFGRDSTIRPGWLTVGPTLTNSNYNAETYASYFSAPNSYLTGCTEEIERLRPKSPPPKSKSDRGGGAPRGGGRGGTSAGRGRERNRSNFRGERGGFRGGRGGAHRGGFPPR [METTL14] | 0.0131 | 52.3 °C | 53.4 °C | -0.118 | -0.705 | 0.141
3 | MATEHPEPPKAELQLPPPPPPGHYGAWAAQELQAKLAEIGAPIQGNREELVERLQSYTRQTGIVLNRPVLRGEDGDKAAPPPMSAQLPGIPMPPPPLGLPPLQPPPPPPPPPPGLGLGFPMAHPPNLGPPPPLRVGEPVALSEEERLKLAQQQAALLMQQEERAKQQGDHSLKEHELLEQQKRAAVLLEQERQQEIAKMGTPVPRPPQDMGQIGVRTPLGPRVAAPVGPVGPTPTVLPMGAPVPRPRGPPPPPGDENREMDDPSVGPKIPQALEKILQLKESRQEEMNSQQEEEEMETDARSSLGQSASETEEDTVSVSKKEKNRKRRNRKKKKKPQRVRGVSSESSGDREKDSTRSRGSDSPAADVEIEYVTEEPEIYEPNFIFFKRIFEAFKLTDDVKKEKEKEPEKLDKLENSAAPKKKGFEEEHKDSDDDSSDDEQEKKPEAPKLSKKKLRRMNRFTVAELKQLVARPDVVEMHDVTAQDPKLLVHLKATRNSVPVPRHWCFKRKYLQGKRGIEKPPFELPDFIKRTGIQEMREALQEKEEQKTMKSKMREKVRPKMGKIDIDYQKLHDAFFKWQTKPKLTIHGDLYYEGKEFETRLKEKKPGDLSDELRISLGMPVGPNAHKVPPPWLIAMQRYGPPPSYPNLKIPGLNSPIPESCSFGYHAGGWGKPPVDETGKPLYGDVFGTNAAEFQTKTEEEEIDRTPWGELEPSDEESSEEEEEEESDEDKPDETGFITPADSGLITPGGFSSVPAGMETPELIELRKKKIEEAMDGSETPQLFTVLPEKRTATVGGAMMGSTHIYDMSTVMSRKGPAPELQGVEVALAPEELELDPMAMTQKYEEHVREQQAQVEKEDFSDMVAEHAAKQKQKKRKAQPQDSRGGSKKYKEFKF [SF3B2] | -0.165 | 50.5 °C | 49.9 °C | 0.237 | -1.42 | -2.09
4 | ANKHD1 | -0.0494 | 47.9 °C | 49.4 °C | -0.0108 | 0.478 | 1.9
5 | MKRRTDPECTAPIKKQKKRVAELALSLSSTSDDEPPSSVSHGAKASTTSLSGSDSETEGKQHSSDSFDDAFKADSLVEGTSSRYSMYNSVSQKLMAKMGFREGEGLGKYSQGRKDIVEASSQKGRRGLGLTLRGFDQELNVDWRDEPEPSACEQVSWFPECTTEIPDTQEMSDWMVVGKRKMIIEDETEFCGEELLHSVLQCKSVFDVLDGEEMRRARTRANPYEMIRGVFFLNRAAMKMANMDFVFDRMFTNPRDSYGKPLVKDREAELLYFADVCAGPGGFSEYVLWRKKWHAKGFGMTLKGPNDFKLEDFYSASSELFEPYYGEGGIDGDGDITRPENISAFRNFVLDNTDRKGVHFLMADGGFSVEGQENLQEILSKQLLLCQFLMALSIVRTGGHFICKTFDLFTPFSVGLVYLLYCCFERVCLFKPITSRPANSERYVVCKGLKVGIDDVRDYLFAVNIKLNQLRNTDSDVNLVVPLEVIKGDHEFTDYMIRSNESHCSLQIKALAKIHAFVQDTTLSEPRQAEIRKECLRLWGIPDQARVAPSSSDPKSKFFELIQGTEIDIFSYKPTLLTSKTLEKIRPVFDYRCMVSGSEQKFLIGLGKSQIYTWDGRQSDRWIKLDLKTELPRDTLLSVEIVHELKGEGKAQRKISAIHILDVLVLNGTDVREQHFNQRIQLAEKFVKAVSKPSRPDMNPIRVKEVYRLEEMEKIFVRLEMKIIKGSSGTPKLSYTGRDDRHFVPMGLYIVRTVNEPWTMGFSKSFKKKFFYNKKTKDSTFDLPADSIAPFHICYYGRLFWEWGDGIRVHDSQKPQDQDKLSKEDVLSFIQMHRA [CMTR1] | -0.186 | 49.7 °C | 51 °C | -0.0832 | 0.699 | 1.05
